{"source": "paper PMC7801428", "about": "(Nature Communications, 2021)", "target": "SARS-CoV-2 S trimer (stabilized S ectodomain, residues 1-1208, proline substitutions at 986 and 987, GSAS at … (SARS-CoV-2, Wuhan-Hu-1, proline substitution at residue 986 | proline substitution at residue 987 | …, biotin (EZ-Link Sulfo-NHS-LC-LC-Biotin) in the BLI experiments; not labelled for cryo-EM)", "assay": "BLI", "conditions": "both partners purified"}
{"binder": "human-mouse chimeric antibody 3C1 (c3C1) (antibody, V domains shown, also called chimeric MAb c3C1) VH: EVQLQESGPSLVKPSQTLSLTCSVTGDSITNGYWNWIRKFPGNKLEYMGYISYSGSTYYSPSLKSRISITRDTSKNQHYLQLNSVTSEDTATYYCASDYHGSKYYFDYWGQGTTLTVSS VL: DIVMTQSHKFMSTSVGHRVSITCKASQDVGNDVAWYQQKPGQSPKLLIYWASTRHTGVPDRFTGSGSGTDFTLTISNVQSEDLADYFCQQYNRYPYTFGGGTKLEIK", "values": [{"measurement": "Kd", "result": "< 1", "unit": "pM"}]}
